Our source for the IC50 values is article PMC9953004, “Scandium-44 Radiolabeled Peptide and Peptidomimetic Conjugates Targeting Neuropilin-1 Co-Receptor as Potential Tools for Cancer Diagnosis and Anti-Angiogenic Therapy” (Biomedicines, 2023).

Primed or numbered codes have the meaning given here. Where no end group is shown, it is not given here. Side-chain parts run from the residue outwards. [ ]: non-standard residue; d: D form. The star is where a group is joined. DOTA″ = DOTA chelator, carrying Sc, O=C([O-])CN1CCN(CC(=O)[O-])CCN(CC(=O)*)CCN(CC(=O)[O-])CC1.[Sc+3]; DOTA′ = DOTA-Sc chelate, O=C([O-])CN1CCN(CC(=O)[O-])CCN(CC(=O)*)CCN(CC(=O)[O-])CC1.[Sc+3]; hArg = N=C(N)NCCCC[C@H](N)C(=O)O; Dab = NCC[C@H](N)C(=O)O; Ahx = NCCCCCC(=O)O

This test has as its target T1, Recombinant human NRP-1 (neuropilin-1 co-receptor) (human, UniProt O14786 22-856).
T1 construct: neuropilin-1, human, recombinant; It is probably a soluble extracellular construct (surmise); source: bought: BioLegend
T1 sequence (looked up): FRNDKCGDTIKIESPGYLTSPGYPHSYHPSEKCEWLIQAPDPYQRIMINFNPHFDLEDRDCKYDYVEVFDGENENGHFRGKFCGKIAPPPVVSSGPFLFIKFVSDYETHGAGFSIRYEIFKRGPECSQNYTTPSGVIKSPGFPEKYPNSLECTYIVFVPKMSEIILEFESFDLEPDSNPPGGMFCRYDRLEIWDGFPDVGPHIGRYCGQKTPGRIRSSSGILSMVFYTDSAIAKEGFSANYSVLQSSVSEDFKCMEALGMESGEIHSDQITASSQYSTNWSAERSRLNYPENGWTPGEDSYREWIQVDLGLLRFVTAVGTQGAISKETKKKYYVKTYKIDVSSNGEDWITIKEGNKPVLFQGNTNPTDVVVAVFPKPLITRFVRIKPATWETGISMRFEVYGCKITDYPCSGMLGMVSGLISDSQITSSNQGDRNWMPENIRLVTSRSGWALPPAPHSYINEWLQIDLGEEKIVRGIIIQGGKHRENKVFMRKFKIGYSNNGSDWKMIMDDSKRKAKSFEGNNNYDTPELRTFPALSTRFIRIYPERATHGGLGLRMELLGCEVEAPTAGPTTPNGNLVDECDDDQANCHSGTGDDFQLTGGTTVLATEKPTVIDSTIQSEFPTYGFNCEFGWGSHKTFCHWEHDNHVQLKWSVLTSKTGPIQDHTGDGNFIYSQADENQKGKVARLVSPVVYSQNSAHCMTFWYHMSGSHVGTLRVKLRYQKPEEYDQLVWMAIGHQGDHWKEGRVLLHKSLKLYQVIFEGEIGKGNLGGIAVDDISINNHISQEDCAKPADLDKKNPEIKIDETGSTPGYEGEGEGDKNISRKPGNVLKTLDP
Kind of test: ELISA; competitive; recombinant human NRP-1 coated on a 96-well plate (200 ng/well, overnight, 4 °C), blocked with 0.5% BSA in PBS; 50 µL compound in PBS (100, 50, 25, 12.5, 6.75 µM) plus 50 µL (400 ng/mL) human (bt)-VEGF-A165 in PBS with 4 µg/mL heparin; 2 h at room temperature; streptavidin-HRP, chemiluminescence; IC50 by nonlinear regression, mean ± SD of three experiments. The conditions noted are these: both partners purified.

As for K(hArg)[Dab]PR [branched peptidomimetic Lys(hArg)-Dab-Pro-Arg (K4R)], the IC50 was found to be 4.83 µM.

B1: Sc-DOTA-Ahx-A7R (peptide)
peptide: {DOTA″-Ahx}-ATWLPPR
modifications: also: Sc chelated by DOTA
notes: A7R peptide with linker and chelator on the N-terminus; also called Sc-1; source: synthetic peptide conjugate (SPPS), complexed with ScCl3
On to B1, for which the IC50 came out at 22.5 µM.

B2: Lys(DOTA-Sc)-A7R (peptide)
peptide: H-K(DOTA′)ATWLPPR
modifications: also: DOTA chelating Sc
notes: Lys(DOTA)-Ala-Thr-Trp-Leu-Pro-Pro-Arg; the Lys is a linker before A7R; also called Sc-1bis; source: bought: CASLO ApS (conjugate 1bis), complexed with ScCl3
As for B2, the IC50 is 18.1 µM.

K(hArg)[Dab]([Ahx-DOTA″])PR (also: Sc chelated by DOTA) [Lys(hArg)-Dab(Ahx-DOTA-Sc)-Pro-Arg]: the concentration for half-maximal inhibition (IC50) was 17.9 µM.

B3: Ala-Thr-Trp-Leu-Pro-Pro-Arg (A7R) heptapeptide (peptide)
peptide: ATWLPPR
notes: found by a mutated phage library screening; free C-terminal carboxyl group; also called ^LA7R; source: synthetic peptide (SPPS, Fmoc chemistry)
B3: the IC50 amounted to 17.5 µM.

[dR][dP][dP][dL][dW][dT][dA] (also called ^DR7A) [retro-inverso isomer of A7R (DArg-DPro-DPro-DLeu-DTrp-DThr-DAla)]: the IC50 was above 100 µM.

By IC50 is commonly meant the point on the concentration scale where inhibition reaches its midpoint.
